In PMC10726570:

Assays:
[1] = biological target: human neonatal Fc receptor (human-FcRn) (human) (UniProt P55899)
[2] = biological target: human neonatal Fc receptor (human-FcRn) (human) (UniProt P55899); test: SPR; format and conditions not told in the text (who was immobilised, pH, buffer); shown in Fig. S1B-C
[3] = biological target: monkey neonatal Fc receptor (monkey-FcRn) (monkey) (UniProt Q8SPV9); test: as above

PAT101, recombinant human albumin (rHA)-conjugated Aspergillus flavus urate oxidase (from UniProt Q00511 1-302; P02768 25-609) (complex)
plasma half-life T1/2 (uricase activity) after a single i.v. dose in TG mice expressing human FcRn [1]: 95 h | Kd [2]: 2.94 µM | Kd [3]: 6.85 µM
